Laboratory results taken from PMC9352680, “A comprehensive thermodynamic model for RNA binding by the Saccharomyces cerevisiae Pumilio protein PUF4”.
Substitutions are numbered along the chain they refer to. Names may count otherwise.

T1: PUF4 RNA-binding domain (Saccharomyces cerevisiae, UniProt P25339 537-888)
T1 sequence: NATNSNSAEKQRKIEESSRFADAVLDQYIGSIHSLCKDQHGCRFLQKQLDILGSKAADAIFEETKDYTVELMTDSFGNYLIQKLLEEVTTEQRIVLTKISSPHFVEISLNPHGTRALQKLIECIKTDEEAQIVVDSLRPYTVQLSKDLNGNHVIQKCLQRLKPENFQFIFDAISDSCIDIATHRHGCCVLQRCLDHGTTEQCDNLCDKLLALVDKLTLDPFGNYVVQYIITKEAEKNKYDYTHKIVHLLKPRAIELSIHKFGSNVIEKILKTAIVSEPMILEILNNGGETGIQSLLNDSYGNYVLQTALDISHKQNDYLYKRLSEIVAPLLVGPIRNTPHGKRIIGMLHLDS

B1: Ib_S1_P5E.1_K5.1_C5.1_H5.1_[T3C]_A5.1_[T5A]_F5.1_T5.1 (ssRNA)
RNA: UCUCUUUGCAAUAUUAUCUCUU
B2: Ib_S1_P5E.1_K5.1_C5.1_H5.1_[G2A]_A5.1_[A7T]_F5.1_T5.1 (ssRNA)
RNA: UCUCUUUAUAUUUUUAUCUCUU
B3: Ib_S1_P5E.1_K5.1_C5.1_H5.1_[T3C]_A5.1_[T6C]_F5.1_T5.1 (ssRNA)
RNA: UCUCUUUGCAUCAUUAUCUCUU
B4: Id_ii_S4_P5E.2_K5.1_C5.2_[C-2G]_[T-1C]_H5.1_A5.1_F5.1_T5.2_[T11A]_[A12T] (ssRNA)
RNA: UUUGACAACUGAUCGUUCUUUCUGCUGUAUUAUUAAUUUCUUUCUCGAUCAGUUGUCUUU
B5: Id_ii_S4_P5E.2_K5.1_C5.2_[C-2A]_[T-1C]_H5.1_A5.1_F5.1_T5.2_[T11A]_[A12T] (ssRNA)
RNA: B4 RNA with G24A
B6: Id_ii_S4_P5E.2_K5.1_C5.2_[C-2G]_[T-1C]_H5.1_A5.1_F5.1_T5.2_[A12C] (ssRNA)
RNA: B4 RNA with A36U, U37C
B7: Id_ii_S4_P5E.2_K5.1_C5.2_[C-2T]_[T-1C]_H5.1_A5.1_F5.1_T5.2_[T11A]_[A12G] (ssRNA)
RNA: B4 RNA with G24U, U37G
B8: Id_ii_S4_P5E.2_K5.1_C5.2_[C-2T]_[T-1G]_H5.1_A5.1_F5.1_T5.2_[A12C] (ssRNA)
RNA: B4 RNA with G24U, C25G, A36U, U37C
B9: Id_ii_S4_P5E.2_K5.1_C5.2_[C-2T]_[T-1G]_H5.1_A5.1_F5.1_T5.2_[T11G]_[A12T] (ssRNA)
RNA: B4 RNA with G24U, C25G, A36G
B10: Id_ii_S4_P5E.2_K5.1_C5.2_[C-2G]_H5.1_A5.1_F5.1_T5.2_[T11A] (ssRNA)
RNA: B4 RNA with C25U, U37A
B11: Id_ii_S4_P5E.2_K5.1_C5.2_[C-2T]_[T-1A]_H5.1_A5.1_F5.1_T5.2_[T11G]_[A12T] (ssRNA)
RNA: B4 RNA with G24U, C25A, A36G
B12: Id_ii_S4_P5E.2_K5.1_C5.2_[C-2T]_[T-1G]_H5.1_A5.1_F5.1_T5.2_[T11A]_[A12T] (ssRNA)
RNA: B4 RNA with G24U, C25G
B13: Id_ii_S4_P5E.2_K5.1_C5.2_[C-2T]_[T-1A]_H5.1_A5.1_F5.1_T5.2_[T11A]_[A12C] (ssRNA)
RNA: B4 RNA with G24U, C25A, U37C
B14: Id_ii_S4_P5E.2_K5.1_C5.2_[C-2A]_[T-1C]_H5.1_A5.1_F5.1_T5.2_[A12C] (ssRNA)
RNA: B4 RNA with G24A, A36U, U37C
B15: Id_ii_S4_P5E.2_K5.1_C5.2_[C-2T]_[T-1G]_H5.1_A5.1_F5.1_T5.2_[T11G]_[A12C] (ssRNA)
RNA: B4 RNA with G24U, C25G, A36G, U37C
B16: Id_ii_S4_P5E.2_K5.1_C5.2_[C-2T]_H5.1_A5.1_F5.1_T5.2_[A12C] (ssRNA)
RNA: B4 RNA with G24U, C25U, A36U, U37C
B17: Id_ii_S4_P5E.2_K5.1_C5.2_[C-2T]_[T-1A]_H5.1_A5.1_F5.1_T5.2_[T11A] (ssRNA)
RNA: B4 RNA with G24U, C25A, U37A
B18: Id_ii_S4_P5E.2_K5.1_C5.2_[C-2T]_[T-1G]_H5.1_A5.1_F5.1_T5.2_[T11A]_[A12C] (ssRNA)
RNA: B4 RNA with G24U, C25G, U37C
B19: Id_ii_S4_P5E.2_K5.1_C5.2_[C-2G]_H5.1_A5.1_F5.1_T5.2_[A12T] (ssRNA)
RNA: B4 RNA with C25U, A36U
B20: Id_ii_S4_P5E.2_K5.1_C5.2_[C-2T]_H5.1_A5.1_F5.1_T5.2_[T11A]_[A12T] (ssRNA)
RNA: B4 RNA with G24U, C25U
B21: Id_ii_S4_P5E.2_K5.1_C5.2_[C-2T]_[T-1C]_H5.1_A5.1_F5.1_T5.2_[T11A]_[A12C] (ssRNA)
RNA: B4 RNA with G24U, U37C
B22: Ib_S1_P5E.1_K5.1_C5.1_H5.1_[G2A]_A5.1_[A7G]_F5.1_T5.1 (ssRNA)
RNA: UCUCUUUAUAUUGUUAUCUCUU
B23: Ib_S1_P5E.1_K5.1_C5.1_H5.1_[G2A]_A5.1_[A7C]_F5.1_T5.1 (ssRNA)
RNA: UCUCUUUAUAUUCUUAUCUCUU
B24: Id_ii_S4_P4E.3_K4.2_C4.2_H4.2_A4.1_F4.1_T4.2_[G10T]_[T11C] (ssRNA)
RNA: UUUGACAACUGAUCGUUCUUUCUCUUAUAUAUUAUCUUCUUUCUCGAUCAGUUGUCUUU
B25: Id_ii_S4_P4E.3_K4.2_C4.2_H4.2_A4.1_F4.1_T4.2_[T11C] (ssRNA)
RNA: B24 RNA with U35G
B26: Id_ii_S4_P4E.4_K4.3_C4.2_H4.3_A4.1_F4.1_T4.2_[G10A]_[T11C] (ssRNA)
RNA: B24 RNA with U26A, A27C, U28A, A29C, U35A
B27: Id_ii_S4_P4E.4_K4.3_C4.2_[C-2G]_H4.3_A4.1_F4.1_T4.2_[G10A]_[T11A] (ssRNA)
RNA: B24 RNA with C24G, U26A, A27C, U28A, A29C, U35A, C36A
B28: Id_ii_S4_P4E.4_K4.3_C4.2_[T-1G]_H4.3_A4.1_F4.1_T4.2_[G10C]_[T11C] (ssRNA)
RNA: B24 RNA with U25G, U26A, A27C, U28A, A29C, U35C

Biological target: T1, PUF4 RNA-binding domain
Experiment: Mg; RNA-MaP; 20 mM Na-HEPES pH 7.4, 30 mM KOAc, 0.75 mM MgCl2, 0.1% Tween-20, 5% glycerol, 0.1 mg/mL BSA, 2 mM DTT; 25 C; 0.0125-409.6 nM protein
Settings: tags: N-His6-TEV cleaved; C-SNAP kept, Cy3B-labelled; label: tethered on chip by stalled RNA polymerase

Binder	Kd
B1	1370 nM
B2	742 nM
B3	1980 nM
B4	3.13 nM
B5	2.62 nM
B6	5.29 nM
B7	34.5 nM
B8	1.56 nM
B9	1.51 nM
B10	6.57 nM
B11	4.76 nM
B12	1.56 nM
B13	9.12 nM
B14	2.14 nM
B15	2.47 nM
B16	2.29 nM
B17	10.7 nM
B18	3.09 nM
B19	1.91 nM
B20	2.21 nM
B21	2.92 nM
B22	846 nM
B23	801 nM
B24	6.46 nM
B25	5.07 nM
B26	1210 nM
B27	0.535 nM
B28	> 2300 nM
